Measurements taken from patent publication US20210032294A1, “MODIFIED PlySs2 LYSINS AND USES THEREOF” (CONTRAFECT CORPORATION, priority 2018, published 2021).
Entries after “also recorded” stand apart in the source; their conditions may differ.

Key:
[1] = tested on: bacterial inoculum; assay: Thermal stability: in vitro lytic assay after 30 min heating; assay type: cell-based
Experimental: Thermal stability was assessed by incubating the lysin polypeptides at a fixed concentration of 128 μg/mL in Tris buffer pH 8.0 for 30 minutes at various elevated temperatures (within the range of about 30° C. to 60° C.) prior to assessing activity. The samples were then cooled for 2 minutes on ice and activity was then assessed by an in vitro lytic assay by exposing a bacterial inoculum (OD600 ˜0.5-1.2) in Tris buffer to a 2-fold dilution series of each sample (diluted from 128-0.25 μg/mL across the x-axis of a 96 well microtiter plate). The loss of optical density was followed for 15 minute at room temperature, and the specific activity was determined based on the enzyme concentration enabling a 50% loss of optical density at 15 minutes. The enzyme activities of each variant were compared to the wild-type, CF-301 enzyme (GMT-grade PlySs2 protein) to calculate the % of Wild-Type Activity over a range of temperatures.
The thermal stability of wild-type, CF-301 was arbitrarily set at 100. The results for exemplary modified lysin polypeptides are set forth below in Table 5 at a single temperature of 37° C.:
In another experiment, the thermal stability of modified lysin polypeptides was assessed at different temperatures and compared with that of wild-type, CF-301 (set at 100).

[2] = tested on: 5 MRSA strains and 5 MSSA strains; assay: Checkerboard synergy assay with daptomycin or vancomycin; assay type: cell-based, Staphylococcus aureus; conditions: for FIC index: with vancomycin
Experimental: Synergy studies with antibiotics suitable for treatment of Gram-positive bacteria, for example, daptomycin (DAP) and vancomycin (VAN), were performed using a checkerboard assay. Fractional inhibitory concentration (FIC) index values were determined for modified lysin polypeptide pp296 and antibiotic combinations against 5 methicillin-sensitive Staphylococcus aureus (MSSA) and 5 methicillin resistant Staphylococcus aureus (MRSA) isolates. An FIC index value of ≤0.5 may be interpreted as strong synergy between the two agents, while a value between 0.5 and 1 may still be considered a synergistic effect. Given that pp296 has four amino acid replacements in the catalytic domain, the ability of pp296 to synergize with antibiotics was unexpected. […] Qualitatively similar results may be anticipated upon performing similar assays using other de-immunized active variants, such as pp55, pp61, pp65, pp400, and pp619, in accordance with the present disclosure.
In another experiment, the ability of modified lysin polypeptide pp296 to synergize with daptomycin and vancomycin was assessed using a checkerboard analysis. FIC (fractional inhibitory concentration) index values were determined for pp296 and antibiotic combinations against 5 MSSA and 5 MRSA isolates. A total of 50 μl of Mueller-Hinton broth (BBL) was distributed into each well of microdilution plates. The first antibiotic of the combination was serially diluted along the ordinate, while the second drug was diluted along the abscissa. An inoculum equal to a 0.5 McFarland turbidity standard was prepared from each S. aureus isolate in MHB. Each microtiter well was inoculated with 100 μl of a bacterial inoculum of 5×10^5 CFU/ml, and the plates were incubated at 37° C. for 18 h under aerobic conditions. The resulting checkerboard contained each combination of two antibiotics, with wells that contained the highest concentration of each antibiotic at opposite corners. […] To quantify the interactions between the antibiotics being tested, the FIC index (the combination of antibiotics that produced the greatest change from the individual antibiotic's MIC) value was calculated for each strain and antibiotic combination as follows:
(A/MICA)+(B/MICB)=FICA+FICB=FIC index,
Checkerboards were generated using combinations of pp296 with either daptomycin or vancomycin against 5 MRSA strains (MW2, JMI-5675, JMI-4408, JMI-6181, and JMI-6182) and 5 MSSA strains (ATCC 29213, JMI-40979, JMI-43257, JMI-41293, and JMI-49315). Synergy was defined as inhibitory activity greater than what would be predicted by adding the two components together.

[3] = Toxicity screening in mice; assay type: in vivo; conditions: 30 mg/kg
Experimental: Selected modified lysin polypeptides from Table 3 were subjected to further testing as described in more detail in subsequent Examples. […] The same 30 mg/kg dose of PlySs2 caused a 100% incidence of adventitial findings, which is an indication of potential toxicity.

[4] = Single 2-hour intravenous infusion toxicity study in rats; assay type: in vivo, Sprague Dawley rats
From the text: The objectives of this study were to evaluate the potential toxicity and toxicokinetic profile of pp296 when administered as a single 2-hour intravenous infusion to Sprague Dawley rats, as well as to evaluate the recovery, persistence, or progression of any effects following a minimum of a 3-day recovery period.
The following Tables 9 and 10 present the study group arrangement. There were 5 male and 5 female rats per group in Phase A.
For the main (Phase A) and toxicokinetic (Phase B) phases, animals received a single 2-hour intravenous infusion. Phase A animals received a single 2-hour intravenous infusion at escalating doses until the maximum tolerated dose (MTD) was determined up to a high dose of 100 mg/kg. A minimum of 3 days of observation was allowed between each pp296 dose. Animals assigned to Groups 2 through 5 were necropsied approximately 72 hours following the end of dose administration. ^aThe vehicle was 20 mM L-histidine, 5% D-sorbitol (w/v), pH 7.0 (±0.1).
The following parameters and endpoints were evaluated in this study: clinical signs, body weight, body weight gain, food consumption, clinical pathology parameters (hematology, coagulation, serum chemistry, and urinalysis), gross necropsy findings, and histopathologic examinations.

[5] = 7-day repeated 2-hour infusion toxicity study in rats; assay type: in vivo, Sprague Dawley rats; conditions: rats, 0.5, 2.5, or 10 mg/kg/day, 7 consecutive days
Experimental: The objective of this study was to evaluate the potential toxicity and toxicokinetic profile of modified lysin polypeptide pp296 when administered daily by 2-hour infusion to Sprague Dawley rats for 7 consecutive days.
Experimental procedures, animals and treatment are summarized below in Table 11.
All surviving animals were submitted for necropsy on Day 8 (Terminal Euthanasia). Necropsies were performed and organ weights were collected by Testing Facility personnel. Statistical analysis of organ weight data was performed by the testing facility engaged on a fee-for-service commercial basis. Tissues required for microscopic evaluation were trimmed, processed routinely, embedded in paraffin, and stained with hematoxylin and eosin by Charles River Laboratories Ashland, LLC. Microscopic evaluation was conducted by a board-certified veterinary pathologist on select protocol-specified tissues from all animals in Groups 1 through 4 and all gross lesions from all animals. Tissues were evaluated by light microscopy.

B1: pp296: Modified PlySs2 lysin, SEQ ID NO: 6: L92W, V104S, V128T, Y137S, Y164K, N184D, S198Q (protein)
chain: MTTVNEALNNVRAQVGSGVSVGNGECYALASWYERMISPDATVGLGAGVGWVSGAIGDTISAKNIGSSYNWQANGWTVSTSGPFKAGQIVTWGATPGNPYGHVSIVEAVDGDRLTILEQNYGGKRYPTRNYYSAASSRQQVVHYITPPGTVAQSAPNLAGSRSKRETGTMTVTVDALNVRRAPDTSGEIVAVYKRGEQFDYDTAIIDVNGYAWVSYIGGSGKRNYVATGATKDGKRFGNAWGTFK
Question: Which “% Wild-Type Activity at 37° C.” value ([1]; 30 minutes at 37° C., 128 μg/mL in Tris buffer pH 8.0, CF-301 set at 100) does the source give for B1 here?
Answer: 205%

Question: What about the “% of CF-301 wild-type, 37° C.” value ([1]; 30 minutes at 37° C., another experiment) of the same molecule?
Answer: 204.6%

Question: What about the “% of CF-301 wild-type, 40° C.” value ([1]; 30 minutes at 40° C.) of the same molecule?
Answer: 243.1%

Question: What about the “% of CF-301 wild-type, 42° C.” value ([1]; 30 minutes at 42° C.) of the same molecule?
Answer: 141.2%

Question: And the “% of CF-301 wild-type, 45° C.” value ([1]; 30 minutes at 45° C.)?
Answer: 40.1%

Question: What about the “% of CF-301 wild-type, 48° C.” value ([1]; 30 minutes at 48° C.) of the same molecule?
Answer: 0.0%

Question: And the “% of CF-301 wild-type, 50° C.” value ([1]; 30 minutes at 50° C.)?
Answer: 0.0%

Question: And the FIC index values ([2]; with both daptomycin and vancomycin, predominantly)?
Answer: ~0.5

Question: And the FIC index ([2]; MRSA JMI-6182)?
Answer: 0.375

Question: And the FIC index ([2]; MSSA ATCC 29213)?
Answer: 0.625

Question: What about the FIC index ([2]; MSSA strain JMI-40979) of the same molecule?
Answer: 0.375

Question: And the FIC index ([2]; against 6 of the 10 strains examined)?
Answer: 0.5

Question: And the “Adventitial findings (lesions)” value [3]?
Answer: no adventitial findings; also recorded: did not result in adventitial lesions

Question: And the “No-observed-adverse-effect level (NOAEL)” value ([4]; single 2-hour intravenous infusion)?
Answer: > 100 mg/kg

Question: What about the “Tolerability / adverse findings” value ([4]; single intravenous infusion, 5, 25, 50, and 100 mg/kg) of the same molecule?
Answer: well tolerated with no adverse findings at all doses; also recorded: well-tolerated with no adverse findings at all doses

Question: What about the Toxicity findings ([5]; 2-hour infusion) of the same molecule?
Answer: No toxicity was found; also recorded: no pp296-related gross, microscopic, or organ weight findings

Question: And the Unscheduled deaths [5]?
Answer: no unscheduled deaths
